{"source": "patent US20240324599A1", "about": "“PESTICIDAL ENZYMES FOR USE ON NEMATODES, INSECTS, AND MOLLUSKS” (priority 2023, published 2024)", "assay_type_in_all_cases": "in vivo", "key": {"[1]": {"test_system": "Btk resistant Diamondback moth", "experiment": "Diet-surface overlay (DSO) bioassay", "protocol": "(§1) Diet-surface overlay bioassays are conducted with artificial diet mixes without antibiotics in 1.5 cm^2 cell bioassay trays(s). Artificial diets are commercially available from Southland Products Inc. Diets were prepared by dispersing 0.5 mL of molten diet to each 1.5 cm^2 cell. After solidification, 0.1 mL enzyme treatments were dispersed on top of diet in each cell and the tray was gently rocked in an orbital shaker to spread the liquid uniformly over the diet surface. Trays were placed under clean airflow until the surface of each cell was uniformly dried. One or two 16-cell sections were used per treatment (the number in larvae treated was 16 or 32).\n(§2) One healthy first instar larva was placed into each treatment cell, each 16-cell section was covered with a re-sealable lid and incubated at 27° C. and light-dark period of 16:8 hrs. After 7 days, and according to the species, the number of individuals in the following developmental categories was recorded.\n(§3) Diamondback moth (Plutella xylostella): Dead Larva (lack of movement), Larva Stage I (≤50% relative size), Larva Stage II (100% relative size, full size), Early Pupa (light green color), Late Pupa (light-dark brown color), and Adult.\n(§4) Negative/untreated controls were treated with filtered water and positive controls were treated with lethal doses of Bacillus thuringiensis subsp. Kurstaki (Btk) spores at 1000 ppm.\nHowever, both neutral proteases reduced the number of individuals reaching adult stage."}, "[2]": {"test_system": "Black gloss snails (Zonitoides nitidus)", "experiment": "Antifeedant and molluscicide bioassay (artificial diet): consumption, survival, weight gain", "conditions": "Table 63; n = 12, 7 days; control diet 2.50", "protocol": "Two-week old garden snails (Cornu aspersum) and full-size black gloss snails (Zonitoides nitidus) were maintained in a semi-darkened tank at 68-70° F. at high humidity, provided with a wet sponge in a petri dish. Snails were transferred to fresh tank every 2-3 days, and they were feed ad libitum with cucumber slices supplemented with calcium carbonate tablets. Individuals were reared in the laboratory for at least a week to fully acclimate to laboratory conditions prior to testing. The individuals ranged between 3 weeks to 2 months old at the time of bioassay.\nFilter-sterilized recombinant enzymes including proteases and lipases were prepared as indicated in Example 25. Corresponding controls (e.g., buffer, fermentation of non-recombinant strain, water) were be prepared accordingly. […]\n12 snails were randomly assigned to each treatment, labeled with permanent marker on the top of the shell for identification, and their weight (mg) was recorded before treatment. […] At the time of treatment replacement, treatment consumption, weight, and mortality were recorded.\nAlkaline Protease and Keratinase and Lipases from Pseudomonas fluorescens (Pf,), were prepared as described above and their antifeedant and molluscicidal effects were tested. […] The units (U) of enzyme activity was determined as the amount of enzyme required to breakdown 1 μM of substrate per minute. […]"}, "[3]": {"test_system": "Diamondback moth (Plutella xylostella)", "experiment": "Diet-surface overlay (DSO) bioassay", "conditions": "Table 41, individuals of n = 16 after 7 days", "protocol": "as §1, §2, §3, §4"}, "[4]": {"test_system": "Fall armyworm (Spodoptera frugiperda)", "experiment": "Diet-surface overlay (DSO) bioassay", "protocol": "as §1, §2, §4"}, "[5]": {"conditions": "Table 42, Btk resistant, n = 32, doses as E69, water 0"}, "[6]": {"conditions": "Table 43, n = 32, Keratinase 260 U/mL diet, water 0"}}, "data": [{"molecule": "Keratinase: protease resuspended in water at 0.25 g/mL (protein, listed as Bacillus licheniformis, Protease _ keratinase, protease resuspended in water at 0.25 g/mL) MMRKKSFWLGMLTAFMLVFTMAFSDSASAAQPAKNVEKDYIVGFKSGVKTASVKKDIIKESGGKVDKQFRIINAAKAKLDKEALKEVKNDPDVAYVEEDHVAHALAQTVPYGIPLIKADKVQAQGFKGANVKVAVLDTGIQASHPDLNVVGGASFVAGEAYNTDGNGHGTHVAGTVAALDNTTGVLGVAPSVSLYAVKVLNSSGSGSYSGIVSGIEWATTNGMDVINMSLGGASGSTAMKQAVDNAYARGVVVVAAAGNSGSSGNTNTIGYPAKYDSVIAVGAVDSNSNRASFSSVGAELEVMAPGAGVYSTYPTNTYATLNGTSMVSPHVAGAAALILSKHPNLSASQVRNRLSSTATYLGSSFYYGKGLINVEAAAQ", "values": [{"measurement": "Dead Larva", "setting": "[1]; Table 42, Btk resistant strain, individuals of n = 32 after 7 days, U/mL diet: SEQ 127 2, Neutral 200, Keratinase 260, water 1", "value": 19}, {"measurement": "Larva Stage I", "setting": "[1]; [5]", "value": 11}, {"measurement": "Larva Stage II", "setting": "[1]; [5]", "value": 2}, {"measurement": "Early Pupa", "setting": "[1]; Table 42, Btk resistant, n = 32, doses as E69, water 1", "value": 0}, {"measurement": "Adult", "setting": "[1]; Table 42, Btk resistant, n = 32, doses as E69, water 8", "value": 0}, {"measurement": "Late Pupa", "setting": "[1]; Table 42, Btk resistant, n = 32, doses as E69, water 22", "value": 0}, {"measurement": "mortality", "setting": "[1]; text to Table 42, 10× higher protease activity rate", "value": "more than 50%"}, {"measurement": "effect on Btk resistant Diamondback moth larvae, in words", "setting": "[1]; text to Tables 42, 45, 47", "value": "strong stunting of survival larvae"}, {"measurement": "Diet consumption", "setting": "[2]", "value": 0.70, "unit": "g"}, {"measurement": "Dead Larva", "setting": "[3]; U/mL diet: SEQ 127 0.206, Acid 2.5, Alkaline 190, Neutral 20, Keratinase 26, Btk spores 1000 ppm, water 0", "value": 1}, {"measurement": "Larva Stage I", "setting": "[3]; doses as E63, water 0", "value": 0}, {"measurement": "Larva Stage II", "setting": "[3]; doses as E63, water 0", "value": 0}, {"measurement": "Early Pupa", "setting": "[3]; doses as E63, water 3", "value": 11}, {"measurement": "Late Pupa", "setting": "[3]; doses as E63, water 3", "value": 4}, {"measurement": "Adult", "setting": "[3]; doses as E63, water 10", "value": 0}, {"measurement": "Dead Larva", "setting": "[4]; Table 43, individuals of n = 32 after 7 days, Keratinase 260 U/mL diet, water 2", "value": 32}, {"measurement": "Larva Stage I", "setting": "[4]; [6]", "value": 0}, {"measurement": "Larva Stage II", "setting": "[4]; [6]", "value": 0}, {"measurement": "Larva Stage III", "setting": "[4]; [6]", "value": 0}, {"measurement": "Larva Stage IV", "setting": "[4]; Table 43, n = 32, Keratinase 260 U/mL diet, water 30", "value": 0}, {"measurement": "effect on Fall armyworm larvae, in words", "setting": "[4]; text to Tables 43, 46, 48, 50", "value": "lethal"}]}]}
